Source: a protein production outcome set (Wang et al. 2014)

Test: label from the status in PepcDB records

| Sequence | protein production |
| --- | --- |
| MTDTHTCLTAKDFTSNQEPKWCPGCGDFMVLQQLKNAMAELCLKTEEVVVVSGIGCSSRLPYYINTYGVHGIHGRAMAMASGLKVARPDLSVWVGTGDGDALSIGGNHYIHTVRRNLDINVVLFNNEIYGLTKGQYSPTSKVGLRTVTSPTGVVDYPINTIALTLGAGGTFVARVMDRDGKLMKEIFKRAHNHKGTSIVEIYQNCPIFNDGAFRAFSDKERKDDTTLYLEQGQPLVFGANGSKGIYLDGFKPTVIDLEKSGVSKDDLWIHDENDLIKANILSRFFDDPNSTEEFLPRPFGIFYVEDRFTYEQALSAQIDKAQEKGEGTLEELLAGNSTWTIN | failed |
| MVSRSPFESFQWKSDIFNCESTDIDNFYLLLEQEMTRLGMVEKNLGEVGKYKVSLYQSPAAKSGLPSLLISAGFHGEESAGPWGLLHFLSEASADLFERVNLSLLPLVNPTGFSRGHRFNKYGENPNRGFVFENGKPKANEHTSVEGKLLLDHAQLLIAACRDGILTCHEDVLSREAYVYSFEPSQVPGRFSLDLRDTLGGYFPIAVDGEIDACPVKDGLIFNHFDTSFEACLVRSGARVGACTETPALQNFDQRVLANSAAMTHFLALCAPLCD | not failed |
| MLNIKRIKKKMNARNLFATAALLFTASTAFAQTGVQTNTPFGSGEDSIRCRQNISLFTSYAKTGNYKDAYDFWEKAYEECPASTKNIYIYGVKISEWRLQNEQDPAKRQQIIDKILKLYDDRVKYFGEDPKYGTDYIMASKISDYMQYMGDKTDYDKVYEWIKPTIDQHGENATPRALFYYAYSSLNKAIRNEAWHETYIKDYTFASQAMEKQLEVADEKGKEFIQPLKTQIDELFAQSGLADCNTLVKMYGDKLEENKTDTTFLKNMLGMFHASDCETHPLYFQANKYLFAVQPSAIAAMGLAKEAMEGNRYNEASDYLQKAIELSKSAKDRAACNYTLGLLAMKQGSYSTARSYCNKALAEDPAMGDALILIAQMYAATANTVFPGDAIKARCVYFLAVDKLQRAKNIDPSCAPRANRLISQYSRNFPSPADVFMHPDLEKGKSLFVGGWIGESTVIR | failed |
| MTQRKVYAPVPVMVAGIAIIATRFLGILLLVWELGLSDLSGWIGSNAEAWDSTLVLLLSLIIVGVEIRCGFAVLAGVNWGRWGYIACQGVVVCYLLLASLSEFMPAIFHISGENHAAVLHQLLMQKIPDLLVIVLLFLPRRSKRFFLRQK | failed |
| MYEFNLVLLLLQQMCVFLVIAWLMSKTRLFIPLMQVTVRLPHKLLCYVTFSIFCIMGTYFGLHIEDSIANTRAIGAVMSGLLGGPVVGGLVGLTGGLHRYSMGGMTALSCMISTIVEGLLGGLVHSVLIRRGRPDKVFSPLTAGAITCVAELVQMLIILLIARPFDDALHLVSNIAAPMMVTNTVGAALFMRILLDKRAMFEKYTSAFSATALKVAASTEGILRQGFNEVNSMKVAQVLYQELDIGAVAITDREKLLAFTGIGDDHHLPGKPISSGYTLKAIETGEVVYADGNEVPYRCSLHPQCKLGSTLVIPLRGENQRVMGTIKLYEAKNRLFSSINRTLGEGIAQLLSAQILAGQYERQKALLTQSEIKLLHAQVNPHFLFNALNTIKAVIRRDSEQASQLVQYLSTFFRKNLKRPSEIVTLADEIEHVNAYLQIEKARFQSRLQVQLDVPSTLSRQKLPAFTLQPIVENAIKHGTSQLLDTGNVAIRARREGQHLMLDIEDNAGLYQPSAGSSGLGMSLVDKRLREHFGDDYGISVACEPDCFTRITLRLPLEEDA | failed |
| MFNRRIALICLIVATLSACGGKTKEELYAEAVKELDKGNANGAIVLLKNAVEKDQNYFDARYKLAKAYMTVGKFEQAEKEFQKALRQNPSNPEIRLDLAKLYNSINKPDESIAEAKAYLSARAGSADALEVIGTSYGQKKMFDEAEKYLKESLQAEPARASAMLQLAKVYLATKREQEGMGLLNEIVRKDPKNTKAYYLAAFYEGYRGNSEKALEYYQKIMQADPDDANAAFRIGMMHISKGEVDKAERLADDLIRKASKRPEGHQLKGIALYTRKNYDQAITELQGVVKNYQNPGAYYYLGLSYYQRNDLESALSQFRKVIDLNPKHLQARLMSATVLLQQKRTDDAITEAKRVIELDDKNAFAHNVLGSAYIAKGMTDEAVRELNRAIELEPKLVGAHMKKGIVNLARGKRAEGEEELETAVKVAPDVLNSRYLLASYYMRLNKQARAIEVLRAGLRGGKQDAPLYNTMAAAAFADKREKDGILYLQKAREVDQAYLPASFNLASYYISKKDNGRAAGLFNEILKRDPANLKALIGLGAISESEGKAQEAVAYYTKAKATKDPVGYLSLASYYIRKKEAPKALALANEGLKGAPNNAALLELKGGLLAADKKYAEALKVYDELEKVAPTRAIPLKIGALVVTKNIPKAVEQAQKVVAANPKSAAGHLVIASIYESQKDYDRAISAVRSGIAVEPGNLRASMALGGIYEKKRDFARAIAAYDDILRKNPKNIPALFAKGAAFDQSGKKKEAAGIYRAVLKIAPDFVPALNNLAYLAAEGYGNKSEALSLASRANKLQPNNAGVMDTYGYALLINGKRTASVRVLEKAVSLLPNNPAVHYHLAMAYRDMGDRAKASVSVQKSLQYGEFPESAAARKLLAELKR | failed |
| MSLSQRTLLLLSQDNAHYERLLKAAHLPHLRILRADNQSDAEKLIGEAHILMAEPARAKPLLAKANKLSWFQSTYAGVDVLLDARCRRDYQLTNVRGIFGPLMSEYVFGHLLSLMRQLPLYREQQKQRLWQSHPYQGLKGRTLLILGTGSIGQHIAHTGKHFGMKVLGVSRSGRERAGFDQVYQLPALNKMLAQADVIVSVLPATRETHHLFTASRFEHCKPGAILFNVGRGNAINEGDLLTALRTGKLGMAVLDVFEQEPLPADSPLWGQPNLIITPHNSAYSFPDDVAQIFVRNYIRFIDGQPLDGKIDFDKGYEGHHHHHH | not failed |
| MAQVNKQAIAAAFGRAASQYEQHASLQQHSADALLTLLTGRQFASVLDAGCGPGRMSRYWRERGSEVTALDLSLPMLQQARDRQAAHHYLLADIEAIPHDAEVFDLAWSNLAVQWCGDLRDALSELYRVVRPGGVVAFTTLCQGSLPELRQAWQAVDNRAHANSFLPEEAIDHALRGWRAFRHTQAMTLWFEDALSAMRSLKGIGATHLHEGRESDVLTRARLRQIQLAWPQRQGKYPLTYHLFMGVIERD | failed |
| MCQSNQIVSHFLSHRNVTNELAEKISKDHYSYKPAETSMSAEELVKHILTSFHLFANVIKEGNASPFQNKQEETETDLNVLAKTYTEKTVAILEQLTEEQLDREIDLTSAFGRKVTGRALLQLAMEHEIHHKGNLFVYVREMGHTELPFYQQRM | not failed |
| MSDKRNPRISSRKQPQQARSSELVASILEAAVQVLASEGAQRFTTARVAERAGVSIGSLYQYFPNKAAILFRLQSDEWRRTTRLLGEILEDTTRPPLERLRRLVLAFVRSECEEAAIRVALSDAAPLYRDADEAREVKAEGARVFQAFLREALPEVAEAERSLAGDLLTTTLGAVGKQFSEQPRSEAEIERYAEALADMLCAYLAALGER | not failed |
| MIDVIGTDAGAPASLPAAQQALIRAAEQIAAPRRLQPALETWLESPVPLIDSDDPRHLVEVLSALSAQTNAVVLASGDPLWFGIGRILAERLGPERLRFHPAPTSLQLAFARIGRPWQDARWVSLHGRDPEPLARELQTRPRALAVLTDPGRGGADAVRRCLRSSGLEASYQLWLGENLGHADERMRLIPADAPLPEPLQPLLVALLIAEEPSIPNSRALPLFGLEDGLYLQHPDHPGLMTKREARIQLLADLDLPDQGVLWDLGAGTGSIGLEALRLRPQLRLLAVERRAGGAALIQANAKRLEVMPSAVVETDALSLLSADLPDGLDQPDRVLLGGGGPHREALLKAVLQRLRPSGIVVIPLATLEAVATLRPLMEQSGLTVQLNQLQAWRGQPLSDGTRLAPMNPILSLKGT | failed |
| MFGCPKDLLNGPCGGALDGKCEVNSNLCPWYSLMEKFELLDGAPLLVEHPVVLEMERIFEGEEVEIKRSSFIKNLGRGKAISVEFPIRLFEKGVREFRKVGDLYTIPDNPLGYPHISPTALGTWLKSKGHSVMPHLTAKDRNVIAISSEFRTALEFDFEGILITTGDWSGFILQGKPVFDLDSANMIRLAKLMFSGVLPTGERVEVKERPFIAGTVNPNYPAKLEGKRLARKIIAGADLVISQVVANRKVVREIPKILQEALKYSPHEVPVVVSILYPLKRELEPILRKMGIKTGDDIRAIVEEISSLEFGGINVIVFEETRWEEKLNEVLDLLKELL | failed |
| MEKTIIAALLMLISLISYAQGLMWTAKAELNMSSMSNVEESKMHPGFYAGIGAGYVIDETRSVRPSLLFTMKGVKQDYKF | failed |
